How the values were obtained:
[1] = molecular target: ht-ADH single-tryptophan variant W87in (W49F:W167Y) (Bacillus stearothermophilus); experiment: SEC
[2] = molecular target: ht-ADH single-tryptophan variant W167in (W49F:W87F) (Bacillus stearothermophilus); experiment: SEC

Substance | stoichiometry N [1] | stoichiometry N [2]
ht-ADH single-tryptophan variant W87in (W49F:W167Y) (enzyme) | 4 | –
ht-ADH single-tryptophan variant W167in (W49F:W87F) (enzyme) | – | 4
